Measured values taken from patent CN113999303A (BEIJING GENESEE BIOLOGICAL TECH CO LTD, dated 2022).

Molecular target: T1, 新型冠状病毒核衣壳蛋白 (SARS-COV-2, UniProt P0DTC9 1-419)
T1 construct: also called SARS-COV-2 nucleocapsid protein; N protein
Assay: ELISA screening of mouse hybridomas for antigen-specific antibodies

B1: 新型冠状病毒核衣壳抗体 mAb#9 (antibody, V domains shown)
VH: EVQLVESGGGLVKPGGSLKLSCAASGITFSDYYMYWVRQTPEKRLEWVATISDGGSYTYYPDSVKGRFTISRDNAKNNLYLQMSSLKSEDTAMYYCVRDKSMGFGAWFAYWGQGTLVTVSA
VL: EIVLTQSPTTMAASPGEKITITCSASSSISSNYLHWYQQRPGFSPKLLIYRTSNLASGVPARFSGSGSGTSYSLTIGTMEAEDVATYYCQQGHSIPYTFGGGTKLEIK
notes: also called 第二新型冠状病毒核衣壳蛋白抗体
binding result: binds
